Sequences and labels used below:
B1: LINE1-full (parent)
chain: UACGUAGGUGGUUUUCCCCUGAUAGUGCUAAGGGGGCCUGGAAGUUUGGACUGGGCAGAGCUCAACACAGCGUGGCAAAGUGGCUGUGGCUAGACUGCCUCUCUGGAUUCCUCGUCACUCAGCAGGGCAUCUCUGAGAGAAAUGCC

We go through 39 variants from the RNAGym collection of RNA variant scans (doi:10.7554/elife.90254).

Variants of B1 are the subject of this series. Kind of series: self-cleavage, relative activity (ratio to wild type); higher = more cleavage; in vitro, sequencing; the parent is a self-cleaving ribozyme.
Consider UACGUAGGUGGUUUUCCCCUGAUAGUGCUAAGGGGGCCUGGAAGUUUGGACUGGGCAGAGCUCAACACAGCGUGGCAAAGUGGCUGUGGCUCGACUGCCUCUCUGGAUUCCUCGUCACUCAGCAGGGCGUCUCUGAGAGAAAUGCC [A92C A129G], for which the self-cleavage amounted to 0. For UACGUAGGUGGUUUUCCCCUGAUAGUGCUAAGGGGGCCUGGAAGUUUGGACUGGGCAGAGCUCAACACAGCGUGGCAAAGUGGCUGUGGCUCGACUGCCUCUCUGGAUUCCUCGUCACUCAGCGGGGCAUCUCUGAGAGAAAUGCC [A92C A124G], the self-cleavage turned out to be 0. As to UACGUAGGUGGUUUUCCCCUGAUAGUGCUAAGGGGGCCUGGAAGUUUGGACUGGGCAGAGCUCAACACAGCGUGGCAAAGUGGCUGUGGCUGGACUGCCUCUCUGGAUUCCUCGUCUCUCAGCAGGGCAUCUCUGAGAGAAAUGCC [A92G A117U], the self-cleavage came to 0.08.

For UACGUAGGUGGUUUUCCCCUGAUAGUGCUAAGGGGGCCUGGAAGUUUGGACUGGGCAGAGCUCAACACAGCGUGGCAAAGUGGCUGUGGCUGGACUGCCUCUCUGGAUUCCUCGUCGCUCAGCAGGGCAUCUCUGAGAGAAAUGCC [A92G A117G], the self-cleavage was 0. The same measure for UACGUAGGUGGUUUUCCCCUGAUAGUGCUAAGGGGGCCUGGAAGUUUGGACUGGGCAGAGCUCAACACAGCGUGGCAAAGUGGCUGUGGCGAGACUGCCUCUCUGGAUUCCUCGUCACUCAGCAGGGCAUCUCUGAGGGAAAUGCC [U91G A138G]: 0. Regarding UACGUAGGUGGUUUUCCCCUGAUAGUGCUAAGGGGGCCUGGAAGUUUGGACUGGGCAGAGCUCAACACAGCGUGGCAAAGUGGCUGUGGCUGGACUGCCUCUCUGGAUUCCUCGUCACUUAGCAGGGCAUCUCUGAGAGAAAUGCC [A92G C120U], the self-cleavage came to 0.07.

UACGUAGGUGGUUUUCCCCUGAUAGUGCUAAGGGGGCCUGGAAGUUUGGACUGGGCAGAGCUCAACACAGCGUGGCAAAGUGGCUGUGGCUGGACUGCCUCUCUGGAUUCCUCGUCACUCAGCAGGGCAUCUCUGAGGGAAAUGCC [A92G A138G]: the self-cleavage was found to be 0.08. To UACGUAGGUGGUUUUCCCCUGAUAGUGCUAAGGGGGCCUGGAAGUUUGGACUGGGCAGAGCUCAACACAGCGUGGCAAAGUGGCUGUGGCUGGACUGACUCUCUGGAUUCCUCGUCACUCAGCAGGGCAUCUCUGAGAGAAAUGCC [A92G C98A] belongs 0.08; to UACGUAGGUGGUUUUCCCCUGAUAGUGCUAAGGGGGCCUGGAAGUUUGGACUGGGCAGAGCUCAACACAGCGUGGCAAAGUGGCUGUGGCCAGACUGCCUCUCUGGAUACCUCGUCACUCAGCAGGGCAUCUCUGAGAGAAAUGCC [U91C U109A], 0.48. On to UACGUAGGUGGUUUUCCCCUGAUAGUGCUAAGGGGGCCUGGAAGUUUGGACUGGGCAGAGCUCAACACAGCGUGGCAAAGUGGCUGUGGCUCGACUGCCUCUCUGGAUCCCUCGUCACUCAGCAGGGCAUCUCUGAGAGAAAUGCC [A92C U109C], for which the self-cleavage was determined as 0. With UACGUAGGUGGUUUUCCCCUGAUAGUGCUAAGGGGGCCUGGAAGUUUGGACUGGGCAGAGCUCAACACAGCGUGGCAAAGUGGCUGUGGCUCUACUGCCUCUCUGGAUUCCUCGUCACUCAGCAGGGCAUCUCUGAGAGAAAUGCC [A92C G93U], the self-cleavage was determined as 0.06.

For the variant UACGUAGGUGGUUUUCCCCUGAUAGUGCUAAGGGGGCCUGGAAGUUUGGACUGGGCAGAGCUCAACACAGCGUGGCAAAGUGGCUGUGGCGAGACUGCCUCUCUGGAUUCCUCGUCACUCAGCAGGGCAUCUCUGAGAGGAAUGCC [U91G A140G], the self-cleavage came out at 0.02. Take UACGUAGGUGGUUUUCCCCUGAUAGUGCUAAGGGGGCCUGGAAGUUUGGACUGGGCAGAGCUCAACACAGCGUGGCAAAGUGGCUGUGGCUCGACUGCCUCUCUGGAUUCCUCGUCACUCAGCAGGGCAUCUCUGAGAGAGAUGCC [A92C A141G]: the self-cleavage came out at 0.26. Take UACGUAGGUGGUUUUCCCCUGAUAGUGCUAAGGGGGCCUGGAAGUUUGGACUGGGCAGAGCUCAACACAGCGUGGCAAAGUGGCUGUGGCUCGACUGCCUCUCUGGAUUCCUCGUCACUCAGCAGGGCAUCCCUGAGAGAAAUGCC [A92C U132C]: the self-cleavage was 0. For the variant UACGUAGGUGGUUUUCCCCUGAUAGUGCUAAGGGGGCCUGGAAGUUUGGACUGGGCAGAGCUCAACACAGCGUGGCAAAGUGGCUGUGGCGAGACUGCCUCUCUGGAUUCUUCGUCACUCAGCAGGGCAUCUCUGAGAGAAAUGCC [U91G C111U], the self-cleavage came to 0.02. Take UACGUAGGUGGUUUUCCCCUGAUAGUGCUAAGGGGGCCUGGAAGUUUGGACUGGGCAGAGCUCAACACAGCGUGGCAAAGUGGCUGUGGCUGGACUGCCUCUCUGGGUUCCUCGUCACUCAGCAGGGCAUCUCUGAGAGAAAUGCC [A92G A107G]: the self-cleavage is 0.17.

As for UACGUAGGUGGUUUUCCCCUGAUAGUGCUAAGGGGGCCUGGAAGUUUGGACUGGGCAGAGCUCAACACAGCGUGGCAAAGUGGCUGUGGCUCGACUGCCUCUCUGGAUUCCUCGUCACUCAGCAGGGUAUCUCUGAGAGAAAUGCC [A92C C128U], the self-cleavage amounted to 0.31. With UACGUAGGUGGUUUUCCCCUGAUAGUGCUAAGGGGGCCUGGAAGUUUGGACUGGGCAGAGCUCAACACAGCGUGGCAAAGUGGCUGUGGCGAGACUGCCUCUCUGGAUUCCUCGUCACUCAGCAGGGCAUCUCUGAGAGAAAUGCC [U91G], the self-cleavage was 0.04. UACGUAGGUGGUUUUCCCCUGAUAGUGCUAAGGGGGCCUGGAAGUUUGGACUGGGCAGAGCUCAACACAGCGUGGCAAAGUGGCUGUGGCGAGACUGCCUCUCUGGACUCCUCGUCACUCAGCAGGGCAUCUCUGAGAGAAAUGCC [U91G U108C]: the self-cleavage was 0. Regarding UACGUAGGUGGUUUUCCCCUGAUAGUGCUAAGGGGGCCUGGAAGUUUGGACUGGGCAGAGCUCAACACAGCGUGGCAAAGUGGCUGUGGCUGGACUGCCUCUCUGGAUUCCUCGUCACUCAGCAGGGCAUCUCUGUGAGAAAUGCC [A92G A136U], the self-cleavage turned out to be 0.05.

For UACGUAGGUGGUUUUCCCCUGAUAGUGCUAAGGGGGCCUGGAAGUUUGGACUGGGCAGAGCUCAACACAGCGUGGCAAAGUGGCUGUGGCUGGACUGCCUCUCUGGAUUCCUCGUCACUCAGCAGGGCAUCUCUGGGAGAAAUGCC [A92G A136G], the self-cleavage is 0.08. Consider UACGUAGGUGGUUUUCCCCUGAUAGUGCUAAGGGGGCCUGGAAGUUUGGACUGGGCAGAGCUCAACACAGCGUGGCAAAGUGGCUGUGGCCAGACUGCCUCUCUGGAUUCCUCGUCACCCAGCAGGGCAUCUCUGAGAGAAAUGCC [U91C U119C], for which the self-cleavage stood at 1.4. For UACGUAGGUGGUUUUCCCCUGAUAGUGCUAAGGGGGCCUGGAAGUUUGGACUGGGCAGAGCUCAACACAGCGUGGCAAAGUGGCUGUGGCCAGACUGCCUCUCUGGAUUCCUCGUCACUCAGCAGGGCAUCUCCGAGAGAAAUGCC [U91C U134C], the self-cleavage turned out to be 0.87.

Turning to UACGUAGGUGGUUUUCCCCUGAUAGUGCUAAGGGGGCCUGGAAGUUUGGACUGGGCAGAGCUCAACACAGCGUGGCAAAGUGGCUGUGGCCAGACUGCCUCUCUGGAUUCCUCGUCACUCAGCAGGGCAUCUCAGAGAGAAAUGCC [U91C U134A], the self-cleavage was found to be 0.57. On to UACGUAGGUGGUUUUCCCCUGAUAGUGCUAAGGGGGCCUGGAAGUUUGGACUGGGCAGAGCUCAACACAGCGUGGCAAAGUGGCUGUGGCCAGACUGCCUCUCUGGAUUCCCCGUCACUCAGCAGGGCAUCUCUGAGAGAAAUGCC [U91C U112C], for which the self-cleavage came to 0.59. In the case of UACGUAGGUGGUUUUCCCCUGAUAGUGCUAAGGGGGCCUGGAAGUUUGGACUGGGCAGAGCUCAACACAGCGUGGCAAAGUGGCUGUGGCGAGGCUGCCUCUCUGGAUUCCUCGUCACUCAGCAGGGCAUCUCUGAGAGAAAUGCC [U91G A94G], the self-cleavage came to 0. To UACGUAGGUGGUUUUCCCCUGAUAGUGCUAAGGGGGCCUGGAAGUUUGGACUGGGCAGAGCUCAACACAGCGUGGCAAAGUGGCUGUGGCCAGACUGCCACUCUGGAUUCCUCGUCACUCAGCAGGGCAUCUCUGAGAGAAAUGCC [U91C U100A] belongs 0.15. Regarding UACGUAGGUGGUUUUCCCCUGAUAGUGCUAAGGGGGCCUGGAAGUUUGGACUGGGCAGAGCUCAACACAGCGUGGCAAAGUGGCUGUGGCCAGACUGCCUCUCUGGAAUCCUCGUCACUCAGCAGGGCAUCUCUGAGAGAAAUGCC [U91C U108A], the self-cleavage worked out at 0.55. UACGUAGGUGGUUUUCCCCUGAUAGUGCUAAGGGGGCCUGGAAGUUUGGACUGGGCAGAGCUCAACACAGCGUGGCAAAGUGGCUGUGGCCAGACUGCCUCUCUGGAUUCCUCGUCACUCAGCAGGGCACCUCUGAGAGAAAUGCC [U91C U130C]: the self-cleavage was 0.77.

In the case of UACGUAGGUGGUUUUCCCCUGAUAGUGCUAAGGGGGCCUGGAAGUUUGGACUGGGCAGAGCUCAACACAGCGUGGCAAAGUGGCUGUGGCUGGACUGCCUCUCUGGAUUCCUCGUCACUCAGCUGGGCAUCUCUGAGAGAAAUGCC [A92G A124U], the self-cleavage came to 0.09.

In the case of UACGUAGGUGGUUUUCCCCUGAUAGUGCUAAGGGGGCCUGGAAGUUUGGACUGGGCAGAGCUCAACACAGCGUGGCAAAGUGGCUGUGGCUGGACUGCCUCUCUGGAUUCCUCGUCACUCAGCAGGGCAUCUCUGAGAGAAGUGCC [A92G A142G], the self-cleavage stood at 0.14.

On to UACGUAGGUGGUUUUCCCCUGAUAGUGCUAAGGGGGCCUGGAAGUUUGGACUGGGCAGAGCUCAACACAGCGUGGCAAAGUGGCUGUGGCUGGACUGCCUCUCUGGAUUCCUCGUCACUCGGCAGGGCAUCUCUGAGAGAAAUGCC [A92G A121G], for which the self-cleavage stood at 0.11.

In the case of UACGUAGGUGGUUUUCCCCUGAUAGUGCUAAGGGGGCCUGGAAGUUUGGACUGGGCAGAGCUCAACACAGCGUGGCAAAGUGGCUGUGGCUGGACUGCCUCUCUGGAUUCCUCGUCACUCUGCAGGGCAUCUCUGAGAGAAAUGCC [A92G A121U], the self-cleavage was found to be 0.09. Turning to UACGUAGGUGGUUUUCCCCUGAUAGUGCUAAGGGGGCCUGGAAGUUUGGACUGGGCAGAGCUCAACACAGCGUGGCAAAGUGGCUGUGGCUGGGCUGCCUCUCUGGAUUCCUCGUCACUCAGCAGGGCAUCUCUGAGAGAAAUGCC [A92G A94G], the self-cleavage amounted to 0.12. UACGUAGGUGGUUUUCCCCUGAUAGUGCUAAGGGGGCCUGGAAGUUUGGACUGGGCAGAGCUCAACACAGCGUGGCAAAGUGGCUGUGGCCAGACUGCCUCUCUGGAUUCCUCGGCACUCAGCAGGGCAUCUCUGAGAGAAAUGCC [U91C U115G]: the self-cleavage worked out at 0.69. Turning to UACGUAGGUGGUUUUCCCCUGAUAGUGCUAAGGGGGCCUGGAAGUUUGGACUGGGCAGAGCUCAACACAGCGUGGCAAAGUGGCUGUGGCCAGACUGCCUCUCUGGAUUCCUCGACACUCAGCAGGGCAUCUCUGAGAGAAAUGCC [U91C U115A], the self-cleavage came out at 0.56. As to UACGUAGGUGGUUUUCCCCUGAUAGUGCUAAGGGGGCCUGGAAGUUUGGACUGGGCAGAGCUCAACACAGCGUGGCAAAGUGGCUGUGGCCAGACUGCCUCUCUGGAUUCCUCGCCACUCAGCAGGGCAUCUCUGAGAGAAAUGCC [U91C U115C], the self-cleavage was 0.83. Consider UACGUAGGUGGUUUUCCCCUGAUAGUGCUAAGGGGGCCUGGAAGUUUGGACUGGGCAGAGCUCAACACAGCGUGGCAAAGUGGCUGUGGCGAGACUGCCUCUCUGGAUUCCUCGUCACUCAGCAGGGCUUCUCUGAGAGAAAUGCC [U91G A129U], for which the self-cleavage amounted to 0.05. As for UACGUAGGUGGUUUUCCCCUGAUAGUGCUAAGGGGGCCUGGAAGUUUGGACUGGGCAGAGCUCAACACAGCGUGGCAAAGUGGCUGUGGCUGGACUGCCUCUCUGGAUUCCUCGUCACUCAGCAGGGCGUCUCUGAGAGAAAUGCC [A92G A129G], the self-cleavage amounted to 0.
